We go through five molecules from patent publication US20200277397A1 (Genmab, published 2020).

Assay [1] concerns the target T1, full length cynomolgus monkey 5T4 (cynomolgus monkey, UniProt Q4R8Y9 35-420).
T1 construct: Uniprot Q4R8Y9; also called cynomolgus monkey 5T4 on HEK-293 cells
T1 sequence: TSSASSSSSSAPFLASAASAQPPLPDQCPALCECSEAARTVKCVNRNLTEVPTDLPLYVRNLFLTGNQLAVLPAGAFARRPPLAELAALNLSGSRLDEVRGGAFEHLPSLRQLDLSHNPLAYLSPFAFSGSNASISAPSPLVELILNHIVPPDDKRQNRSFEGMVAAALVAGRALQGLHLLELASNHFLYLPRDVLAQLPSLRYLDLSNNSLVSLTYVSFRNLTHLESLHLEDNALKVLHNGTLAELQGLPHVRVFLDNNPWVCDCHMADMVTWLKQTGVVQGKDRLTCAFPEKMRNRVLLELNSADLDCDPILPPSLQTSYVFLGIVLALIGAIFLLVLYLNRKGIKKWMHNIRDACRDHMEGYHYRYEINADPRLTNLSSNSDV
The assay is described as follows: flow cytometry, HEK-293 cells transfected with cynomolgus monkey 5T4 (right panel), PE anti-human IgG F(ab')2, MFI PE.

Assay [2] deals with T2, full length human 5T4 (human, UniProt Q13641 32-420).
T2 construct: Uniprot Q13641; Used here also for endogenous 5T4 on the human tumour cell lines
T2 sequence: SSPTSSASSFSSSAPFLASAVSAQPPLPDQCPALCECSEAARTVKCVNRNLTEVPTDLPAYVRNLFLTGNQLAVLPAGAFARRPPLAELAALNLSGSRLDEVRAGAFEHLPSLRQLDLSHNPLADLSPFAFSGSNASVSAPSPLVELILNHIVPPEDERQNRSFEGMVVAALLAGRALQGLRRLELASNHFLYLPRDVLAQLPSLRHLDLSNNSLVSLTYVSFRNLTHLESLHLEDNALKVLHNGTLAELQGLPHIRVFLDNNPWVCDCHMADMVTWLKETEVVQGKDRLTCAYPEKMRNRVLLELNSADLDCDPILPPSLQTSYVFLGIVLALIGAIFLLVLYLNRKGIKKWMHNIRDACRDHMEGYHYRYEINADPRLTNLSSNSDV
Put plainly: flow cytometry, HeLa cells, PE anti-human IgG F(ab')2, MFI PE. Background: A flow cytometer gives signals particle by particle.

For assay [3], the target named is T1, full length cynomolgus monkey 5T4. The assay is described as follows: flow cytometry, HEK-293 cells transfected with cynomolgus monkey 5T4 (right panel), PE anti-human IgG F(ab')2, MFI PE. The source holds these as a separate data set.
Assay [4] addresses T2, full length human 5T4. The assay is described as follows: flow cytometry, HeLa cells, PE anti-human IgG F(ab')2, MFI PE. This is another data set of the same source.
Assay [5] deals with T1, full length cynomolgus monkey 5T4. The assay is described as follows: flow cytometry, HEK-293 cells transfected with cynomolgus monkey 5T4 (right panel), PE anti-human IgG F(ab')2, MFI PE. This is another data set of the same source.
Assay [6] concerns the target T2, full length human 5T4. Put plainly: flow cytometry, HEK-293 cells transfected with human 5T4 (left panel), PE anti-human IgG F(ab')2, MFI PE.
Assay [7] concerns the target T1, full length cynomolgus monkey 5T4. Put plainly: flow cytometry, HEK-293 cells transfected with cynomolgus monkey 5T4 (right panel), PE anti-human IgG F(ab')2, MFI PE. The source holds these as a separate data set.
Assay [8] has the same target. The description is as above. This is another data set of the same source.
Assay [9] concerns the target T2, full length human 5T4. Put plainly: flow cytometry, HEK-293 cells transfected with human 5T4 (left panel), PE anti-human IgG F(ab')2, MFI PE. The source holds these as a separate data set.

Like-named read-outs stand apart in the source and are kept apart here.

B1: bsIgG1-huCD3-H101G-FEALx5T4-A1-FEAR (bispecific antibody)
heavy 1: not shown
VL 1: not shown
heavy 2: QIQLVQSGPELKKPGETVKISCKASGYTFTNFGMNWVKQGPGEGLKWMGWINTNTGEPRYAEEFKGRFAFSLETTASTAYLQINNLKNEDTATYFCARDWDGAYFFDYWGQGTTLTVSSASTKGPSVFPLAPSSKSTSGGTAALGCLVKDYFPEPVTVSWNSGALTSGVHTFPAVLQSSGLYSLSSVVTVPSSSLGTQTYICNVNHKPSNTKVDKRVEPKSCDKTHTCPPCPAPEFEGGPSVFLFPPKPKDTLMISRTPEVTCVVVAVSHEDPEVKFNWYVDGVEVHNAKTKPREEQYNSTYRVVSVLTVLHQDWLNGKEYKCKVSNKALPAPIEKTISKAKGQPREPQVYTLPPSREEMTKNQVSLTCLVKGFYPSDIAVEWESNGQPENNYKTTPPVLDSDGSFFLYSRLTVDKSRWQQGNVFSCSVMHEALHNHYTQKSLSLSPGK
VL 2: SIVMTQTPKFLLVSAGDRVTITCKASQSVSNDVAWYQQKPGQSPKLLINFATNRYTGVPNRFTGSGYGTDFTFTISTVQAEDLALYFCQQDYSSPWTFGGGTKLEIK
Take B1: the binding result (in assay [1]; in the assay with full length human 5T4 [2]) was “binds” in each case.

B2: bsIgG1-huCD3-H101G-FEALx5T4-127-FEAR (bispecific antibody)
heavy 1: not shown
VL: not shown
heavy 2: EVQLLESRGGLVQPGGSLRLSCAASGFTFSSYAMSWVRQAPGKGLEWVSTISGSGGSTYYADSVKGRFTISRDNSKKTLYLQMNSLRAEDTAVYYCAKDWGSGSYPAEYFQHWGQGTLVTVSSASTKGPSVFPLAPSSKSTSGGTAALGCLVKDYFPEPVTVSWNSGALTSGVHTFPAVLQSSGLYSLSSVVTVPSSSLGTQTYICNVNHKPSNTKVDKRVEPKSCDKTHTCPPCPAPEFEGGPSVFLFPPKPKDTLMISRTPEVTCVVVAVSHEDPEVKFNWYVDGVEVHNAKTKPREEQYNSTYRVVSVLTVLHQDWLNGKEYKCKVSNKALPAPIEKTISKAKGQPREPQVYTLPPSREEMTKNQVSLTCLVKGFYPSDIAVEWESNGQPENNYKTTPPVLDSDGSFFLYSRLTVDKSRWQQGNVFSCSVMHEALHNHYTQKSLSLSPGK
light: not shown
For B2, the EC50 (read off the curve) – broadly, the concentration that produces a half-maximal response – in assay [3] is around 0.1 µg/mL.

B3: bsIgG1-huCD3-H101G-FEALx5T4-A3-FEAR (bispecific antibody)
heavy 1: not shown
VL 1: not shown
heavy 2: EVQLVESGGGLVQPKGSLKLSCAASGFTFNTYAMNWVRQAPGKGLEWVARIRSKSNNYATYYADSVKDRFTISRDDSQSMLYLQMNNLKTEDTAMYYCVRQWDYDVRAMNYWGQGTSVTVSSASTKGPSVFPLAPSSKSTSGGTAALGCLVKDYFPEPVTVSWNSGALTSGVHTFPAVLQSSGLYSLSSVVTVPSSSLGTQTYICNVNHKPSNTKVDKRVEPKSCDKTHTCPPCPAPEFEGGPSVFLFPPKPKDTLMISRTPEVTCVVVAVSHEDPEVKFNWYVDGVEVHNAKTKPREEQYNSTYRVVSVLTVLHQDWLNGKEYKCKVSNKALPAPIEKTISKAKGQPREPQVYTLPPSREEMTKNQVSLTCLVKGFYPSDIAVEWESNGQPENNYKTTPPVLDSDGSFFLYSRLTVDKSRWQQGNVFSCSVMHEALHNHYTQKSLSLSPGK
VL 2: DIVMTQSHIFMSTSVGDRVSITCKASQDVDTAVAWYQQKPGQSPKLLIYWASTRLTGVPDRFTGSGSGTDFTLTISNVQSEDLADYFCQQYSSYPYTFGGGTKLEIK
In the case of B3, the binding result (with full length human 5T4 [4]; in [5]) was “binds” in each case.

B4: bsIgG1-huCD3-H101G-FEALx5T4-076-FEAR (bispecific antibody)
heavy 1: not shown
VL: not shown
heavy 2: QVQLVQSGAEVKKPGASVKVSCKASGYTFTSYGISWVRQAPGQGLEWMGWISAYNGNTNYAQKLQGRVTMTTDTSTRTAYMELRSLRSDDTAVYYCARDPGYFDWLYGDYWGQGTLVTVSSASTKGPSVFPLAPSSKSTSGGTAALGCLVKDYFPEPVTVSWNSGALTSGVHTFPAVLQSSGLYSLSSVVTVPSSSLGTQTYICNVNHKPSNTKVDKRVEPKSCDKTHTCPPCPAPEFEGGPSVFLFPPKPKDTLMISRTPEVTCVVVAVSHEDPEVKFNWYVDGVEVHNAKTKPREEQYNSTYRVVSVLTVLHQDWLNGKEYKCKVSNKALPAPIEKTISKAKGQPREPQVYTLPPSREEMTKNQVSLTCLVKGFYPSDIAVEWESNGQPENNYKTTPPVLDSDGSFFLYSRLTVDKSRWQQGNVFSCSVMHEALHNHYTQKSLSLSPGK
light: not shown
Consider B4, for which the binding result with full length human 5T4 [6] is on record as “binds”. Besides, the “EC50 (read off the curve)” value in [7] is around 0.4 µg/mL.

B5: bsIgG1-huCD3-H101G-FEALx5T4-085-FEAR (bispecific antibody)
heavy 1: not shown
VL: not shown
heavy 2: EVQLLESGGGLVQPGGSLRLSCAASGFTFSSYAMSWVRQAPGKGLEWVSAISGSGGSTYNADSVKGRFTIFRDNSKNTLYLHMNSLRAEDTAVYYCARDPGYNNVEYLDHWGQGTLVTVSSASTKGPSVFPLAPSSKSTSGGTAALGCLVKDYFPEPVTVSWNSGALTSGVHTFPAVLQSSGLYSLSSVVTVPSSSLGTQTYICNVNHKPSNTKVDKRVEPKSCDKTHTCPPCPAPEFEGGPSVFLFPPKPKDTLMISRTPEVTCVVVAVSHEDPEVKFNWYVDGVEVHNAKTKPREEQYNSTYRVVSVLTVLHQDWLNGKEYKCKVSNKALPAPIEKTISKAKGQPREPQVYTLPPSREEMTKNQVSLTCLVKGFYPSDIAVEWESNGQPENNYKTTPPVLDSDGSFFLYSRLTVDKSRWQQGNVFSCSVMHEALHNHYTQKSLSLSPGK
light: not shown
As to B5, the “EC50 (read off the curve)” value in assay [8] was around 0.4 µg/mL; with full length human 5T4 [9], around 0.5 µg/mL.
